In the Human Domainome abundance scans (Beltran et al. 2025):
± gives the uncertainty stated by the source.

test: abundance fitness (aPCA) (normalised: wild type 0, dead -1); higher = more abundant; growth selection in yeast, the domain comes from the species named; settings: Homo sapiens

With “E3 ubiquitin-protein ligase NEDD4-like W199M, Q96PU5” as the substance, how does the abundance fitness read?
The abundance fitness was -0.514 ± 0.089.

With “E3 ubiquitin-protein ligase NEDD4-like W199N, Q96PU5” as the substance, how does the abundance fitness read?
The abundance fitness was -0.853 ± 0.19.

Which abundance fitness does the source give for “E3 ubiquitin-protein ligase NEDD4-like W199P, Q96PU5” here?
Its abundance fitness is -1.03 ± 0.13.

For “E3 ubiquitin-protein ligase NEDD4-like W199Q, Q96PU5”, which abundance fitness is on record?
The abundance fitness was -0.586 ± 0.098.

With “E3 ubiquitin-protein ligase NEDD4-like W199R, Q96PU5” as the substance, how does the abundance fitness read?
The abundance fitness was -0.536 ± 0.065.

Which abundance fitness does the source give for “E3 ubiquitin-protein ligase NEDD4-like W199S, Q96PU5” here?
Its abundance fitness is -0.454 ± 0.067.

Which abundance fitness does the source give for “E3 ubiquitin-protein ligase NEDD4-like W199T, Q96PU5” here?
The abundance fitness was -0.176 ± 0.09.

For “E3 ubiquitin-protein ligase NEDD4-like W199V, Q96PU5”, which abundance fitness is on record?
Its abundance fitness is -0.287 ± 0.07.

With “E3 ubiquitin-protein ligase NEDD4-like W199Y, Q96PU5” as the substance, how does the abundance fitness read?
The abundance fitness was -0.403 ± 0.14.

With “E3 ubiquitin-protein ligase NEDD4-like W221A, Q96PU5” as the substance, how does the abundance fitness read?
Its abundance fitness is -0.035 ± 0.077.

For “E3 ubiquitin-protein ligase NEDD4-like W221C, Q96PU5”, which abundance fitness is on record?
Its abundance fitness is -0.051 ± 0.079.

Which abundance fitness does the source give for “E3 ubiquitin-protein ligase NEDD4-like W221D, Q96PU5” here?
The abundance fitness was -0.029 ± 0.1.

Which abundance fitness does the source give for “E3 ubiquitin-protein ligase NEDD4-like W221E, Q96PU5” here?
Its abundance fitness is -0.106 ± 0.085.

With “E3 ubiquitin-protein ligase NEDD4-like W221F, Q96PU5” as the substance, how does the abundance fitness read?
The abundance fitness was -0.04 ± 0.084.

With “E3 ubiquitin-protein ligase NEDD4-like W221G, Q96PU5” as the substance, how does the abundance fitness read?
Its abundance fitness is -0.219 ± 0.063.

Which abundance fitness does the source give for “E3 ubiquitin-protein ligase NEDD4-like W221H, Q96PU5” here?
Its abundance fitness is -0.243 ± 0.1.

With “E3 ubiquitin-protein ligase NEDD4-like W221I, Q96PU5” as the substance, how does the abundance fitness read?
Its abundance fitness is -0.192 ± 0.12.

Which abundance fitness does the source give for “E3 ubiquitin-protein ligase NEDD4-like W221K, Q96PU5” here?
Its abundance fitness is -0.044 ± 0.1.

Which abundance fitness does the source give for “E3 ubiquitin-protein ligase NEDD4-like W221L, Q96PU5” here?
The abundance fitness was -0.031 ± 0.054.

For “E3 ubiquitin-protein ligase NEDD4-like W221N, Q96PU5”, which abundance fitness is on record?
The abundance fitness was -0.402 ± 0.11.

Which abundance fitness does the source give for “E3 ubiquitin-protein ligase NEDD4-like W221Q, Q96PU5” here?
The abundance fitness was 0.196 ± 0.1.

For “E3 ubiquitin-protein ligase NEDD4-like W221R, Q96PU5”, which abundance fitness is on record?
Its abundance fitness is -0.052 ± 0.058.

Which abundance fitness does the source give for “E3 ubiquitin-protein ligase NEDD4-like W221S, Q96PU5” here?
Its abundance fitness is 0.124 ± 0.063.

Which abundance fitness does the source give for “E3 ubiquitin-protein ligase NEDD4-like W221T, Q96PU5” here?
The abundance fitness was -0.035 ± 0.063.

With “E3 ubiquitin-protein ligase NEDD4-like W221V, Q96PU5” as the substance, how does the abundance fitness read?
Its abundance fitness is -0.123 ± 0.066.

With “E3 ubiquitin-protein ligase NEDD4-like W221Y, Q96PU5” as the substance, how does the abundance fitness read?
Its abundance fitness is 0.193 ± 0.12.

For “E3 ubiquitin-protein ligase NEDD4-like Y210A, Q96PU5”, which abundance fitness is on record?
Its abundance fitness is -0.379 ± 0.067.

With “E3 ubiquitin-protein ligase NEDD4-like Y210C, Q96PU5” as the substance, how does the abundance fitness read?
The abundance fitness was -0.386 ± 0.1.

With “E3 ubiquitin-protein ligase NEDD4-like Y210E, Q96PU5” as the substance, how does the abundance fitness read?
Its abundance fitness is -0.516 ± 0.082.

For “E3 ubiquitin-protein ligase NEDD4-like Y210F, Q96PU5”, which abundance fitness is on record?
The abundance fitness was -0.255 ± 0.1.

For “E3 ubiquitin-protein ligase NEDD4-like Y210G, Q96PU5”, which abundance fitness is on record?
Its abundance fitness is -0.621 ± 0.057.

For “E3 ubiquitin-protein ligase NEDD4-like Y210I, Q96PU5”, which abundance fitness is on record?
The abundance fitness was -0.379 ± 0.07.

With “E3 ubiquitin-protein ligase NEDD4-like Y210K, Q96PU5” as the substance, how does the abundance fitness read?
Its abundance fitness is -0.269 ± 0.069.

With “E3 ubiquitin-protein ligase NEDD4-like Y210L, Q96PU5” as the substance, how does the abundance fitness read?
Its abundance fitness is -0.261 ± 0.058.

Which abundance fitness does the source give for “E3 ubiquitin-protein ligase NEDD4-like Y210M, Q96PU5” here?
Its abundance fitness is -0.19 ± 0.084.

For “E3 ubiquitin-protein ligase NEDD4-like Y210N, Q96PU5”, which abundance fitness is on record?
Its abundance fitness is -0.589 ± 0.095.

Which abundance fitness does the source give for “E3 ubiquitin-protein ligase NEDD4-like Y210P, Q96PU5” here?
The abundance fitness was -0.778 ± 0.1.

With “E3 ubiquitin-protein ligase NEDD4-like Y210Q, Q96PU5” as the substance, how does the abundance fitness read?
The abundance fitness was -0.198 ± 0.069.

Which abundance fitness does the source give for “E3 ubiquitin-protein ligase NEDD4-like Y210R, Q96PU5” here?
Its abundance fitness is -0.299 ± 0.063.

For “E3 ubiquitin-protein ligase NEDD4-like Y210S, Q96PU5”, which abundance fitness is on record?
The abundance fitness was -0.359 ± 0.071.

With “E3 ubiquitin-protein ligase NEDD4-like Y210T, Q96PU5” as the substance, how does the abundance fitness read?
Its abundance fitness is -0.159 ± 0.072.

For “E3 ubiquitin-protein ligase NEDD4-like Y210V, Q96PU5”, which abundance fitness is on record?
Its abundance fitness is -0.356 ± 0.069.

For “E3 ubiquitin-protein ligase NEDD4-like Y210W, Q96PU5”, which abundance fitness is on record?
Its abundance fitness is -0.287 ± 0.08.

With “E3 ubiquitin-protein ligase NEDD4-like Y211C, Q96PU5” as the substance, how does the abundance fitness read?
Its abundance fitness is -0.696 ± 0.08.

With “E3 ubiquitin-protein ligase NEDD4-like Y211D, Q96PU5” as the substance, how does the abundance fitness read?
The abundance fitness was -0.486 ± 0.065.

With “E3 ubiquitin-protein ligase NEDD4-like Y211E, Q96PU5” as the substance, how does the abundance fitness read?
The abundance fitness was -0.643 ± 0.058.

For “E3 ubiquitin-protein ligase NEDD4-like Y211G, Q96PU5”, which abundance fitness is on record?
The abundance fitness was -0.749 ± 0.058.

With “E3 ubiquitin-protein ligase NEDD4-like Y211H, Q96PU5” as the substance, how does the abundance fitness read?
The abundance fitness was -0.77 ± 0.12.

With “E3 ubiquitin-protein ligase NEDD4-like Y211I, Q96PU5” as the substance, how does the abundance fitness read?
Its abundance fitness is -0.601 ± 0.065.

With “E3 ubiquitin-protein ligase NEDD4-like Y211K, Q96PU5” as the substance, how does the abundance fitness read?
The abundance fitness was -0.691 ± 0.097.

Which abundance fitness does the source give for “E3 ubiquitin-protein ligase NEDD4-like Y211M, Q96PU5” here?
Its abundance fitness is -0.779 ± 0.11.

Which abundance fitness does the source give for “E3 ubiquitin-protein ligase NEDD4-like Y211N, Q96PU5” here?
Its abundance fitness is -0.704 ± 0.16.

Which abundance fitness does the source give for “E3 ubiquitin-protein ligase NEDD4-like Y211P, Q96PU5” here?
Its abundance fitness is -0.548 ± 0.087.

With “E3 ubiquitin-protein ligase NEDD4-like Y211Q, Q96PU5” as the substance, how does the abundance fitness read?
Its abundance fitness is -0.704 ± 0.085.

Which abundance fitness does the source give for “E3 ubiquitin-protein ligase NEDD4-like Y211R, Q96PU5” here?
Its abundance fitness is -0.728 ± 0.052.

For “E3 ubiquitin-protein ligase NEDD4-like Y211S, Q96PU5”, which abundance fitness is on record?
The abundance fitness was -0.715 ± 0.055.

Which abundance fitness does the source give for “E3 ubiquitin-protein ligase NEDD4-like Y211T, Q96PU5” here?
Its abundance fitness is -0.608 ± 0.064.

For “E3 ubiquitin-protein ligase NEDD4-like Y211V, Q96PU5”, which abundance fitness is on record?
Its abundance fitness is -0.736 ± 0.06.

Which abundance fitness does the source give for “E3 ubiquitin-protein ligase NEDD4-like Y211W, Q96PU5” here?
The abundance fitness was -0.244 ± 0.078.
